Laboratory results taken from patent US5633227.

How the values were obtained:
[1] = target: human mast cell tryptase purified from human lung (human) (UniProt Q15661); assay: VIP assay (loss of full-length Dns-VIP), Dixon plot, human lung tryptase
[2] = target: dansylated vasoactive intestinal peptide (Dns-VIP, 28 amino acids) (Homo sapiens (Human)) (UniProt P01282)
[3] = target: human mast cell tryptase purified from human lung (human) (UniProt Q15661); assay: GPK-AMC enzyme inhibition assay, Dixon plot, human lung tryptase
[4] = target: human mast cell tryptase purified from human lung (human) (UniProt Q15661); assay: VIP assay (formation of Dns-VIP-(1-14)), Dixon plot, human lung tryptase

Chain of N-terminal domain of SLPI (amino acids 1-49) (P03973 26-74 limits assumed): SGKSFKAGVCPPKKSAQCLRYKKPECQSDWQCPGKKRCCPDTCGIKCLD
Chain of C-terminal domain of SLPI (amino acids 50-107) (P03973 75-132 limits assumed): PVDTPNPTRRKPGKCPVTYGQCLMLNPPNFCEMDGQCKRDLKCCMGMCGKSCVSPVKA
Chain of recombinant secretory leukocyte protease inhibitor (SLPI) (P03973 26-132): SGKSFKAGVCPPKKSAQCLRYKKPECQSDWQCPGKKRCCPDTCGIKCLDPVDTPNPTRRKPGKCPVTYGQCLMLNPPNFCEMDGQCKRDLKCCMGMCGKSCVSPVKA

Row | Ki [1] [nM] | kcat/Km for the disappearance of full-length Dns-VIP (1-28), no addition [2] [M⁻¹ s⁻¹] | Ki [3] [nM] | Ki [4] [nM] | Substance
1 | 8 |  |  |  | recombinant secretory leukocyte protease inhibitor (SLPI) (from UniProt P03973)
2 |  | 1.8e+07 |  |  | human mast cell tryptase purified from human lung (from UniProt Q15661) (enzyme)
3 |  |  | 4.8 | 1.6 | C-terminal domain of SLPI (amino acids 50-107) (from UniProt P03973)
4 |  |  | 290 | 130 | N-terminal domain of SLPI (amino acids 1-49) (from UniProt P03973)
